PMC2950913 (Nature structural & molecular biology, 2010)

Biological target: T1, RAD51 recombinase (human, UniProt Q06609 1-339)
T1 sequence: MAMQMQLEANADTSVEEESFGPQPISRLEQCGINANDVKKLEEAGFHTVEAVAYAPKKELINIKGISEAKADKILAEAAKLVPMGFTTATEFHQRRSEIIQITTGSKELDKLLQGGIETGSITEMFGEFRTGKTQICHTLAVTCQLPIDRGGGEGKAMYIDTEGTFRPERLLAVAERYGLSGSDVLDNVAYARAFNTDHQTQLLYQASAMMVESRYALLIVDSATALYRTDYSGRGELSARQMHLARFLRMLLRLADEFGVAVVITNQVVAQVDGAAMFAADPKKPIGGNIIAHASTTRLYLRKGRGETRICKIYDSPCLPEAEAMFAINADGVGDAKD
Experiment: pull-down

binding result: binds
B1: GST-tagged PALB2 1-184 fragment (domain or fragment)
chain: MDEPPGKPLSCEEKEKLKEKLAFLKREYSKTLARLQRAQRAEKIKHSIKKTVEEQDCLSQQDLSPQLKHSEPKNKICVYDKLHIKTHLDEETGEKTSITLDVGPESFNPGDGPGGLPIQRTDDTQEHFPHRVSDPSGEQKQKLPSRRKKQQKRTFISQERDCVFGTDSLRLSGKRLKEQEEISS
